In general, Kd refers to the concentration at which binding is half-saturated. The term koff denotes the first-order rate constant of dissociation. A lower koff goes with a long-lived complex. A word on the kon: it is a measure of how fast the partners come together. A lower kon goes with slow association.

We go through 16 molecules from US20210032291A1, “Compstatin Analogs With Improved Pharmacokinetic Properties” (The Trustees of the University of Pennsylvania, priority 2011, published 2021).

Bridge positions count the residues as written; N and C are the ends. Square brackets hold non-standard residues; d marks the D form. Ends that are not written are not given here. Trp(1-Me) = Cn1cc(C[C@H](N)C(=O)O)c2ccccc21; NMeI = CC[C@H](C)[C@H](NC)C(=O)O; Orn = NCCC[C@H](N)C(=O)O; Sar = CNCC(=O)O

B1: Peptide 20: Tyr-Gly-[Cys-Val-Trp(Me)-Gln-Asp-Trp-Sar-Ala-His-Arg-Cys]-mIle-NH2 (peptide)
peptide: YGCV[Trp(1-Me)]QDW[Sar]AHRC[NMeI]-NH2
modifications: disulfide 3-13; N-terminus assumed
SMILES: CC[C@H](C)[C@@H](C(N)=O)N(C)C(=O)[C@@H]1CSSC[C@H](NC(=O)CNC(=O)[C@@H](N)Cc2ccc(O)cc2)C(=O)N[C@@H](C(C)C)C(=O)N[C@@H](Cc2cn(C)c3ccccc23)C(=O)N[C@@H](CCC(N)=O)C(=O)N[C@@H](CC(=O)O)C(=O)N[C@@H](Cc2c[nH]c3ccccc23)C(=O)N(C)CC(=O)N[C@@H](C)C(=O)N[C@@H](Cc2c[nH]cn2)C(=O)N[C@@H](CCCNC(=N)N)C(=O)N1
B2: Peptide 7: Trp-Ile-[Cys-Val-Trp(Me)-Gln-Asp-Trp-Sar-Ala-His-Arg-Cys]-mIle-NH2 (peptide)
peptide: WICV[Trp(1-Me)]QDW[Sar]AHRC[NMeI]-NH2
modifications: disulfide 3-13; N-terminus assumed
SMILES: CC[C@H](C)[C@H](NC(=O)[C@@H](N)Cc1c[nH]c2ccccc12)C(=O)N[C@H]1CSSC[C@@H](C(=O)N(C)[C@H](C(N)=O)[C@@H](C)CC)NC(=O)[C@H](CCCNC(=N)N)NC(=O)[C@H](Cc2c[nH]cn2)NC(=O)[C@H](C)NC(=O)CN(C)C(=O)[C@H](Cc2c[nH]c3ccccc23)NC(=O)[C@H](CC(=O)O)NC(=O)[C@H](CCC(N)=O)NC(=O)[C@H](Cc2cn(C)c3ccccc23)NC(=O)[C@H](C(C)C)NC1=O
B3: Peptide 12: mIle-Ile-[Cys-Val-Trp(Me)-Gln-Asp-Trp-Sar-Ala-His-Arg-Cys]-mIle-NH2 (peptide)
peptide: IICVWQDWGAHRCI
modifications: mIle (N-methyl-Ile; printed 'mlle') at Xaa0; Trp(Me) at position 4; Sar at position 8; mIle at position 13; C-terminal -NH2; cyclic via Cys2-Cys12 disulfide (compstatin position numbering)
B4: Peptide 10: mPhe-Ile-[Cys-Val-Trp(Me)-Gln-Asp-Trp-Sar-Ala-His-Arg-Cys]-mIle-NH2 (peptide)
peptide: FICVWQDWGAHRCI
modifications: mPhe (N-methyl-Phe) at Xaa0; Trp(Me) at position 4; Sar at position 8; mIle at position 13; C-terminal -NH2; cyclic via Cys2-Cys12 disulfide (compstatin position numbering)
B5: Peptide 6: Arg-Ile-[Cys-Val-Trp(Me)-Gln-Asp-Trp-Sar-Ala-His-Arg-Cys]-mIle-NH2 (peptide)
peptide: RICV[Trp(1-Me)]QDW[Sar]AHRC[NMeI]-NH2
modifications: disulfide 3-13; N-terminus assumed
SMILES: CC[C@H](C)[C@H](NC(=O)[C@@H](N)CCCNC(=N)N)C(=O)N[C@H]1CSSC[C@@H](C(=O)N(C)[C@H](C(N)=O)[C@@H](C)CC)NC(=O)[C@H](CCCNC(=N)N)NC(=O)[C@H](Cc2c[nH]cn2)NC(=O)[C@H](C)NC(=O)CN(C)C(=O)[C@H](Cc2c[nH]c3ccccc23)NC(=O)[C@H](CC(=O)O)NC(=O)[C@H](CCC(N)=O)NC(=O)[C@H](Cc2cn(C)c3ccccc23)NC(=O)[C@H](C(C)C)NC1=O
B6: Peptide 11: mVal-Ile-[Cys-Val-Trp(Me)-Gln-Asp-Trp-Sar-Ala-His-Arg-Cys]-mIle-NH2 (peptide)
peptide: VICVWQDWGAHRCI
modifications: mVal (N-methyl-Val) at Xaa0; Trp(Me) at position 4; Sar at position 8; mIle at position 13; C-terminal -NH2; cyclic via Cys2-Cys12 disulfide (compstatin position numbering)
B7: Peptide 13: mAla-Ile-[Cys-Val-Trp(Me)-Gln-Asp-Trp-Sar-Ala-His-Arg-Cys]-mIle-NH2 (peptide)
peptide: AICVWQDWGAHRCI
modifications: mAla (N-methyl-Ala) at Xaa0; Trp(Me) at position 4; Sar at position 8; mIle at position 13; C-terminal -NH2; cyclic via Cys2-Cys12 disulfide (compstatin position numbering)
B8: Peptide 2: Gly-Ile-[Cys-Val-Trp(Me)-Gln-Asp-Trp-Sar-Ala-His-Arg-Cys]-mIle-NH2 (peptide)
peptide: GICV[Trp(1-Me)]QDW[Sar]AHRC[NMeI]-NH2
modifications: disulfide 3-13; N-terminus assumed
SMILES: CC[C@H](C)[C@H](NC(=O)CN)C(=O)N[C@H]1CSSC[C@@H](C(=O)N(C)[C@H](C(N)=O)[C@@H](C)CC)NC(=O)[C@H](CCCNC(=N)N)NC(=O)[C@H](Cc2c[nH]cn2)NC(=O)[C@H](C)NC(=O)CN(C)C(=O)[C@H](Cc2c[nH]c3ccccc23)NC(=O)[C@H](CC(=O)O)NC(=O)[C@H](CCC(N)=O)NC(=O)[C@H](Cc2cn(C)c3ccccc23)NC(=O)[C@H](C(C)C)NC1=O
B9: Peptide 5: Phe-Ile-[Cys-Val-Trp(Me)-Gln-Asp-Trp-Sar-Ala-His-Arg-Cys]-mIle-NH2 (peptide)
peptide: FICV[Trp(1-Me)]QDW[Sar]AHRC[NMeI]-NH2
modifications: disulfide 3-13; N-terminus assumed
SMILES: CC[C@H](C)[C@H](NC(=O)[C@@H](N)Cc1ccccc1)C(=O)N[C@H]1CSSC[C@@H](C(=O)N(C)[C@H](C(N)=O)[C@@H](C)CC)NC(=O)[C@H](CCCNC(=N)N)NC(=O)[C@H](Cc2c[nH]cn2)NC(=O)[C@H](C)NC(=O)CN(C)C(=O)[C@H](Cc2c[nH]c3ccccc23)NC(=O)[C@H](CC(=O)O)NC(=O)[C@H](CCC(N)=O)NC(=O)[C@H](Cc2cn(C)c3ccccc23)NC(=O)[C@H](C(C)C)NC1=O
B10: Peptide 19: Ac-Trp-[Cys-Val-Trp(Me)-Gln-Asp-Trp-Sar-Ala-His-Arg-Cys]-mIle-NH2 (peptide)
peptide: Ac-WCV[Trp(1-Me)]QDW[Sar]AHRC[NMeI]-NH2
modifications: disulfide 2-12
SMILES: CC[C@H](C)[C@@H](C(N)=O)N(C)C(=O)[C@@H]1CSSC[C@H](NC(=O)[C@H](Cc2c[nH]c3ccccc23)NC(C)=O)C(=O)N[C@@H](C(C)C)C(=O)N[C@@H](Cc2cn(C)c3ccccc23)C(=O)N[C@@H](CCC(N)=O)C(=O)N[C@@H](CC(=O)O)C(=O)N[C@@H](Cc2c[nH]c3ccccc23)C(=O)N(C)CC(=O)N[C@@H](C)C(=O)N[C@@H](Cc2c[nH]cn2)C(=O)N[C@@H](CCCNC(=N)N)C(=O)N1
B11: Peptide 8: Thr-Ile-[Cys-Val-Trp(Me)-Gln-Asp-Trp-Sar-Ala-His-Arg-Cys]-mIle-NH2 (peptide)
peptide: TICV[Trp(1-Me)]QDW[Sar]AHRC[NMeI]-NH2
modifications: disulfide 3-13; N-terminus assumed
SMILES: CC[C@H](C)[C@H](NC(=O)[C@@H](N)[C@@H](C)O)C(=O)N[C@H]1CSSC[C@@H](C(=O)N(C)[C@H](C(N)=O)[C@@H](C)CC)NC(=O)[C@H](CCCNC(=N)N)NC(=O)[C@H](Cc2c[nH]cn2)NC(=O)[C@H](C)NC(=O)CN(C)C(=O)[C@H](Cc2c[nH]c3ccccc23)NC(=O)[C@H](CC(=O)O)NC(=O)[C@H](CCC(N)=O)NC(=O)[C@H](Cc2cn(C)c3ccccc23)NC(=O)[C@H](C(C)C)NC1=O
B12: Peptide 1: Me-Ile-[Cys-Val-Trp(Me)-Gln-Asp-Trp-Sar-Ala-His-Arg-Cys]-mIle-NH2 (peptide)
peptide: Me-ICVWQDW[Sar]AHRC[NMeI]-NH2
modifications: disulfide 2-12; not fully specified (residue 4); printed as Me-Ile-[Cys-Val-Trp(Me)-Gln-Asp-Trp-Sar-Ala-His-Arg-Cys]-mIle-NH2
B13: Compstatin 30 (Cp30): Sar-Ile-[Cys-Val-Trp(Me)-Gln-Asp-Trp-Sar-Ala-His-Arg-Cys]-mIle-NH2 (peptide)
peptide: GICVWQDWGAHRCI
modifications: Sar (N-methyl-Gly) at Xaa0 (N-terminus); Trp(Me) at position 4; Sar at position 8; mIle at position 13; C-terminal -NH2; cyclic via Cys2-Cys12 disulfide (compstatin position numbering)
B14: Cp40 (6Asn) (peptide)
peptide: [dY]ICV[Trp(1-Me)]QNW[Sar]AHRC[NMeI]-NH2
modifications: disulfide 3-13; N-terminus assumed
SMILES: CC[C@H](C)[C@H](NC(=O)[C@H](N)Cc1ccc(O)cc1)C(=O)N[C@H]1CSSC[C@@H](C(=O)N(C)[C@H](C(N)=O)[C@@H](C)CC)NC(=O)[C@H](CCCNC(=N)N)NC(=O)[C@H](Cc2c[nH]cn2)NC(=O)[C@H](C)NC(=O)CN(C)C(=O)[C@H](Cc2c[nH]c3ccccc23)NC(=O)[C@H](CC(N)=O)NC(=O)[C@H](CCC(N)=O)NC(=O)[C@H](Cc2cn(C)c3ccccc23)NC(=O)[C@H](C(C)C)NC1=O

For one assay, the target named is C3b (biotinylated, captured site-specifically on a streptavidin chip) (UniProt P01024). The assay can be described thus: SPR on immobilised C3b.
Molecule B1 registered a fold weaker binding affinity than peptide 4 of 3 fold.

For a further assay the target is unchanged. The assay can be described thus: SPR (Biacore 3000), single-cycle kinetics, biotinylated C3b on streptavidin chip, peptide as analyte, 1:1 Langmuir fit. (In general: SPR reads the build-up and loss of mass on a sensor chip optically.)
Regarding B2, the Kd worked out at 2.2 nM, the koff stood at 0.0036 s⁻¹ and the association rate constant (kon) was 1.6e+06 M⁻¹ s⁻¹.

Molecule B3 yielded a Kd of 2.4 nM, an off-rate (koff) of 0.0037 s⁻¹ and an on-rate constant (kon) of 1.6e+06 M⁻¹ s⁻¹.

The molecule B4 showed an equilibrium dissociation constant (Kd) of 1.8 nM, a koff of 0.0029 s⁻¹ and an on-rate (kon) of 1.6e+06 M⁻¹ s⁻¹.

As to B5, the Kd is 1.7 nM, the koff turned out to be 0.0029 s⁻¹ and the on-rate constant (kon) is 1.7e+06 M⁻¹ s⁻¹.

Regarding B6, the Kd was found to be 1.9 nM, the koff is 0.0035 s⁻¹ and the on-rate constant (kon) was 1.8e+06 M⁻¹ s⁻¹.

Take B7: the Kd came out at 2.5 nM, the dissociation rate constant (koff) is 0.0034 s⁻¹ and the kon was found to be 1.4e+06 M⁻¹ s⁻¹.

As to B8, the Kd is 2.5 nM, the koff amounted to 0.0029 s⁻¹ and the association rate constant (kon) came to 1.2e+06 M⁻¹ s⁻¹.

For the molecule B9, the Kd came to 1.6 nM, the off-rate (koff) stood at 0.0033 s⁻¹ and the kon stood at 2.1e+06 M⁻¹ s⁻¹.

B10 yielded a Kd of 0.5 nM, a koff of 0.0017 s⁻¹ and a kon of 3.8e+06 M⁻¹ s⁻¹.

Take B1: the Kd is 3.5 nM, the off-rate constant (koff) is 0.0073 s⁻¹ and the kon was found to be 2.1e+06 M⁻¹ s⁻¹.

B11 displayed a Kd of 2.6 nM, a koff of 0.0031 s⁻¹ and an association rate constant (kon) of 1.2e+06 M⁻¹ s⁻¹.

Molecule B12 gave a Kd of 18.6 nM, a koff of 0.0248 s⁻¹ and a kon of 1.3e+06 M⁻¹ s⁻¹.

As for B13, the dissociation constant Kd is 1.6 nM, the koff came to 0.0029 s⁻¹ and the kon is 1.9e+06 M⁻¹ s⁻¹.

For another assay the target is unchanged. The assay can be described thus: SPR, single-cycle kinetics on immobilised C3b (method of Example 2).
The molecule [dY]ICV[Trp(1-Me)]QDW[Sar]AH[Orn]C[NMeI]-NH2 (disulfide 3-13) [Cp40 (11Orn)] showed a Kd of 0.8 nM, an off-rate constant (koff) of 0.002 s⁻¹ and an on-rate constant (kon) of 2.5e+06 M⁻¹ s⁻¹.

[dY]ICV[Trp(1-Me)]QNW[Sar]AH[Orn]C[NMeI]-NH2 (disulfide 3-13) [Cp40 (11Orn 6Asn)] registered a Kd of 1.5 nM, an off-rate constant (koff) of 0.0028 s⁻¹ and an on-rate constant (kon) of 2e+06 M⁻¹ s⁻¹.

On to B14, for which the Kd turned out to be 3 nM, the off-rate constant (koff) stood at 0.0028 s⁻¹ and the kon worked out at 900000 M⁻¹ s⁻¹.
